These results are taken from patent US20080292639A1 (Amgen, published 2008).

The koff is the rate constant with which the complex falls apart. High values mean a short-lived complex, low ones a long-lived complex. As usually defined, the EC50 is the concentration at which the effect is half-maximal. Read a high EC50 as a less potent agent. One may read the Kd as the equilibrium constant for the complex coming apart. One may read the kon as a measure of how fast the partners come together.

Values joined by “and” are separate entries in the source; they are usually repeats but may differ in a detail not shown here. Equal values may be shown once.

Assay [1] addresses T1, human Aβ40 fibrils (human, UniProt P05067 672-711).
T1 construct: domain: Aβ40; Aggregated (fibrillar) form; also called Fibrillar Aβ40; Aβ40 aggregate
The assay can be described thus: BIAcore, antibody injected over immobilized Aβ aggregates. As for the experimental part:
(§1) Preparation of BIacore Chip Surfaces: Immobilization of Proteins to a Biacore sensor chip (CM5) was performed according to manufacturer's instructions. Briefly, carboxyl groups on the sensor chip surfaces were activated by injecting 60 μL of a mixture containing 0.2 M N-ethyl-N′-(dimethylaminopropyl)carbodiimide (EDC) and 0.05 M N-hydroxysuccinimide (NHS). Specific surfaces were obtained by injecting rProtein G (Pierce), goat anti-mouse Fc (Jackson Immuno Research Lab) or Aβ aggregates diluted in 10 mM acetate, pH 4.0 at concentrations between 5 and 20 μg/mL. Excess reactive groups on the surfaces were deactivated by injecting 60 μL of 1 M ethanolamine. Final immobilized levels were about 10000 resonance units (RU) for the Protein G and anti-mouse Fc surfaces, and 400 RU for the Aβ aggregates surfaces. A blank, mock-coupled reference surface was also prepared on the sensor chips for background subtraction.
(§2) Kinetic analysis of antibodies binding to immobilized Aβ aggregates: Antibodies were diluted in PBS+0.005% P-20+0.1 mg/mL BSA from 100 nM to 0.2 nM. The samples at each concentration were injected over the immobilized Aβ aggregate surfaces, as well as over a blank surface for background subtraction. After a 15-minute dissociation, the surface was regenerated by injecting 8 mM glycine, pH 3.0, and 1 M NaCl for 30 seconds.
Background: Surface plasmon resonance follows binding to a sensor surface in real time, without labels.

In assay [2] the target is T2, human Aβ42 fibrils (human, UniProt P05067 672-713).
T2 construct: domain: Aβ42; Aggregated (fibrillar) form; also called Fibrillar Aβ42; Aβ42 aggregate
T2 sequence (P05067 672-713 limits assumed): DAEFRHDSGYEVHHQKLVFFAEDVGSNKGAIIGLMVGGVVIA
Described as above. As to the method:
as §1, §2

In assay [3] the target is T1, human Aβ40 fibrils. The assay can be described thus: ELISA on plate-dried fibrils, time-resolved europium fluorescence. As to the method: (§3) The fibrils (Aβ or collagen) were diluted to 10 μg/ml in water and mixed thoroughly. The solution was aliquoted into the wells of a microtiter plate (Immulon-2; VWR; Cat # 62404-972) at 50 μl per well (resulting in 0.5 μg fibrils/well final). The plate was dried overnight by being placed uncovered in a 37° C. incubator.
(§4) The wells were blocked with 200 μl of blocking solution and incubated for ≧1 hour at room temperature (RT) with shaking. The blocking solution was flicked out and gently dried on a paper towel. 100 μl of primary antibody diluted in PBS containing 10% blocking solution was added to each well and the plate was incubated at RT for 1 hour with shaking. The plate was washed with 5-10× in TBS, pH 7.5+0.05% Tween 20. 100 μl of secondary antibodies (each diluted 1-2,000-fold in PBS) was added to each well and the plate was incubate at RT for 1 hour with shaking. The plate was washed with 5-10× in TBS, pH 7.5+0.05% Tween 20. 100 μl Streptavidin-Europium reagent (1-1,000-fold dilution) was added and the plated was incubated at RT for 45 minutes with shaking. The plate was washed 5-10× in TBS, pH 7.5+0.05% Tween 20. 120 μl Enhance Solution was added and the plate was incubated at RT for 15-30 minutes with shaking. The plate was read on a Victor TRF plate reader (Europium program).

For assay [4], the target named is T2, human Aβ42 fibrils. The description is as above. As for the experimental part: as §3, §4
Assay [5] addresses T3, human Aβ40 monomer (human, UniProt P05067 672-711).
T3 construct: domain: Aβ40; Monomeric form
The assay can be described thus: BIAcore, antibody captured on protein G or anti-mouse Fc, Aβ monomer injected. As for the experimental part:
as §1
(§5) Kinetic analysis of Aβ monomers binding to protein G captured antibodies: The kinetic analysis of the interaction between Aβ monomers and antibodies was performed as follows: 2.1A and mAb 2.1 were diluted in PBS+0.005% P-20+0.1 mg/mL BSA and injected over the immobilized protein G or anti-mouse Fc surfaces. Aβ monomers were diluted in PBS+0.005% P-20+0.1 mg/mL BSA from 1000 nM to 2 nM, and each concentration was injected over the captured antibody surfaces. After 3 minutes dissociation, each surface was regenerated by injection of 10 mM glycine, pH 1.5.

Assay [6] deals with T4, human Aβ42 monomer (human, UniProt P05067 672-713).
T4 construct: domain: Aβ42; Monomeric form
T4 sequence (P05067 672-713 limits assumed): as above
Described as above. As for the experimental part: as §1, §5

Assay [7] has as its target T1, human Aβ40 fibrils. In words: BIAcore, antibody injected over immobilized Aβ fibrils. As for the experimental part: as §1, §2
(§6) The kinetic analysis assay as described above was repeated using various humanized versions of anti-Aβ antibodies (2.1 chimera, 2.1 B, 2.1 C, 2.1 D, 2.1 E, 2.1 F, 2.1 G, 2.1 E.K5, 2.1E.K5R, 2.1 G.K5, 2.1 G.K5R, 2.1 I.K5R and 2.1 L).

Assay [8] deals with T2, human Aβ42 fibrils. The assay is described as above. As to the method:
as §1, §2, §6

Assay [9] deals with T3, human Aβ40 monomer. In words: ELISA on plate-coated monomer, time-resolved europium fluorescence. As to the method: (§7) The same techniques were used for the coating of the microtiter plate for monomer ELISA. The fibrils Aβ monomer were diluted to 2.5 μg/ml in Coating buffer and mixed thoroughly. The solution was aliquoted into the wells of a microtiter plate [Immulon-2; VWR; Cat.#62404-972] at 100 μl per well. The plate was sealed and incubated overnight at 4° C. The plate was washed 5-10× to remove Aβ coating solution prior to starting the assay.
as §4

Assay [10] has as its target T4, human Aβ42 monomer. The assay is described as above. As to the method: as §7, §4
Assay [11] deals with T5, native amyloid plaques in unfixed brain sections of Tg2576 APP transgenic mice (human, UniProt P05067 672-713, limits assumed). In words: cell-based or functional assay.
T5 sequence (P05067 672-713 limits assumed): as above
Assay [12] has as its target amyloid plaques in unfixed brain sections of a human AD patient (human, UniProt P05067 672-713). In words: cell-based or functional assay.
The target of assay [13] is T5, native amyloid plaques in unfixed brain …. In words: immunohistochemistry on unfixed Tg2576 mouse brain sections.
Assay [14] shares this target. The assay can be described thus: cell-based or functional assay. The source holds these as a separate data set.

T3 sequence (P05067 672-711 limits assumed): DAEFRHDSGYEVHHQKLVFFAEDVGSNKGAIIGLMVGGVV
T1 sequence (P05067 672-711 limits assumed): as above
amyloid plaques in unfixed brain sections of a human AD patient, sequence (P05067 672-713): as the sequence (P05067 672-713 limits assumed) above

B1: 2.1 A (antibody, human IgG1, kappa)
heavy: not shown
light: DVLMTQSPLSLPVTLGQPASISCRSSQSIVHSNGNTYLEWYLQRPGQSPKLLIYKVSNRFSGVPDRFSGSGSGTDFTLKISRVEAEDVGVYYCFQGSHVPLTFGAGTKLEIKRTVAAPSVFIFPPSDEQLKSGTASVVCLLNNFYPREAKVQWKVDNALQSGNSQESVTEQDSKDSTYSLSSTLTLSKADYEKHKVYACEVTHQGLSSPVTKSFNRGEC
notes: Humanized IgG
As to B1, the koff in [1] was less than 5e-05 s⁻¹; in assay [2] it was less than 5e-05 s⁻¹; in assay [5], 0.0094 s⁻¹; in [6] it was 0.0049 s⁻¹; in assay [7] it was less than 5e-05 s⁻¹; in [8], less than 5e-05 s⁻¹. The half-maximal effective concentration (EC50) in [3] was 0.065 nM; in assay [4], 0.074 nM; in assay [9], 0.029 nM; in assay [10], 0.031 nM. In addition, the equilibrium dissociation constant (Kd) in assay [5] is 68 nM; in assay [6], 50 nM. Moreover, the on-rate (kon) in assay [5] was 140000 M⁻¹ s⁻¹; in assay [6], 98000 M⁻¹ s⁻¹. Besides, the “EC50 (µg/ml), ex vivo phagocytosis” value in [11] was 0.83 µg/mL. Further, in [12], the “EC50 of phagocytosis by IC-21 cells on human AD brain sections” value stood at 0.72 µg/mL.

B2: 2.1 N (antibody, human IgG1, kappa, V domains shown)
VH: QVTLKESGPALVKPTQTLTLTCTFSGFSLRTSGMGVGWIRQPPGKGLEWLAHIWWDDDKSYNPSLKSQLTISKDTSKNQVVLTMTNMDPVDTATYYCARRNYYYDDYFAYWGQGTTLTVSS
VL: DVVMTQSPLSLPVTLGQPASISCRSSQSIVHSNGNTYLEWFQQRPGQSPRRLIYKVSNRFSGVPDRFSGSGSGTDFTLKISRVEAEDVGVYYCFQGSHVPLTFGQGTKLEIKR
notes: Humanized IgG
B2: the binding result in [13] was “no binding (tested: 1 µg/ml)”.

B3: 2.1 chimera (murine/human chimeric form of antibody 2.1) (antibody, V domains shown)
VH: QVTLKESGPGILKPSQTLSLTCSFSGFSLRTSGMGVGWIRQPSGKGLEWLAHIWWDDDKSYNPSLKSQLTISKDTSRNQVFLKITSVDTADTATYYCARRNYYYDDYFAYWGQGTTLTVSS
VL: DVLMTQTPLSLPVSLGDQASISCRSSQSIVHSNGNTYLEWYLQKPGQSPKLLIYKVSNRFSGVPDRFSGSGSGTDFTLKISRVEAEDLGVYYCFQGSHVPLTFGAGTKLELK
notes: also called chimera 2.1; (CHO) 2.1 Chimera (control)
With B3, the concentration for a half-maximal effect (EC50) amounted to 0.06 nM in assay [3], 0.072 nM in [4], 0.031 nM in assay [9] and 0.034 nM in assay [10]. Besides, the off-rate (koff) in assay [7] is 0.00012 s⁻¹ and 5.9e-05 s⁻¹; in assay [8], 6.9e-05 s⁻¹ and 6.3e-05 s⁻¹. Moreover, the “EC50 (µg/ml), ex vivo phagocytosis” value in [11] amounted to 0.8 µg/mL. The “EC50 (µg/ml), ex vivo phagocytosis; 2.1 Chimera (293)” value in assay [11] was found to be 1.08 µg/mL. Also, the “EC50 (µg/ml), ex vivo phagocytosis; 2.1 Chimera (CHO)” value in assay [11] stood at 0.7 µg/mL.

B4: murine monoclonal anti-amyloid antibody 2.1 (antibody, mouse IgG1, kappa, V domains shown)
VH: QVTLKESGPGILKPSQTLSLTCSFSGFSLRTSGMGVGWIRQPSGKGLEWLAHIWWDDDKSYNPSLKSQLTISKDTSRNQVFLKITSVDTADTATYYCARRNYYYDDYFAYWGQGTTLTVSS
VL: DVLMTQTPLSLPVSLGDQASISCRSSQSIVHSNGNTYLEWYLQKPGQSPKLLIYKVSNRFSGVPDRFSGSGSGTDFTLKISRVEAEDLGVYYCFQGSHVPLTFGAGTKLELKR
notes: also called mAb 2.1; 2.1 murine
Turning to B4, the dissociation rate constant (koff) is less than 5e-05 s⁻¹ in assay [1], less than 5e-05 s⁻¹ in assay [2], 0.0041 s⁻¹ in assay [5] and 0.00072 s⁻¹ in [6]. In addition, the Kd in [5] is 42 nM; in assay [6], 17 nM. The on-rate constant (kon) amounted to 98000 M⁻¹ s⁻¹ in assay [5] and 42000 M⁻¹ s⁻¹ in [6]. For the same molecule, the “EC50 of antibody induced phagocytosis of amyloid” value in assay [14] was 0.4 µg/mL.
